Data as given in EP2204447B1.

Target: streptavidin (UniProt P22629)
Assay: capture of cells on streptavidin coated magnetic beads, before selection

Sequence of UniProt P22629 (P22629 37-163 limits assumed): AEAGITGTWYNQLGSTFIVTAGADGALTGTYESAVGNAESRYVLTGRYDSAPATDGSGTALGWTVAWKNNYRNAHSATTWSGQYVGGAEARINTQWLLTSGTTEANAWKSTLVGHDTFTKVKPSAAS

Ramos IgM (immunoglobulin of the unselected / wild-type Ramos Burkitt lymphoma cell line) (antibody)
proportion of cells which bind to the beads: 0.02%
